Source: US20220089746A1 (INSTITUT NATIONAL DE LA RECHERCHE SCIENTIFIQUE, published 2022)
Like-named read-outs stand apart in the source and are kept apart here.

B1: Nanobody 219_F09 (VHH)
VHH: EVQLQASGGGFVQPGGSLRLSCAASGAYSFESGMGWFRQAPGKEREFVSAISSDADLFSYYADSVKGRFTISRDNSKNTVYLQMNSLRAEDTATYYCAAFSSGGELSYWGQGTQVTVSS
notes: 175 aa with the tag, so CDR3 has 9 residues, which fits CDR set (a), (e) or (h)
B2: Nanobody 218_A01 (VHH)
VHH: EVQLQASGGGFVQPGGSLRLSCAASGAGSRSDVMGWFRQAPGKEREFVSAISGFWGWTTYYADSVKGRFTISRDNSKNTVYLQMNSLRAEDTATYYCALGGAPGQTGYWGQGTQVTVSS
notes: as for B1
B3: Nanobody 218_B04 (VHH)
VHH: EVQLQASGGGFVQPGGSLRLSCAASGRTSSQDIMGWFRQAPGKEREFVSAISDYSGGNVYYADSVKGRFTISRDNSKNTVYLQMNSLRAEDTATYYCAFLGEEKTSWYWGQGTQVTVSS
notes: as for B1
B4: Nanobody 219_A01 (VHH)
VHH: EVQLQASGGGFVQPGGSLRLSCAASGGGYDWDAMGWFRQAPGKEREFVSAISSNNNGSRYYADSVKGRFTISRDNSKNTVYLQMNSLRAEDTATYYCAADQYWGQGTQVTVSS
notes: 169 aa with the tag, so CDR3 has 3 residues
B5: Nanobody 216_A01 (SEQ ID NO: 6) (VHH)
VHH: EVQLQASGGGFVQPGGSLRLSCAASGRYSRIEIMGWFRQAPGKEREFVSAISSTPSSNEYYADSVKGRFTISRDNSKNTVYLQMNSLRAEDTATYYCARWDWHSWDTYWGQGTQVTVSS
notes: Humanized synthetic single domain antibody, his-tagged, made in E. coli; 175 aa with the tag; also called NB #2
B6: Nanobody 216_D11 (VHH)
VHH: EVQLQASGGGFVQPGGSLRLSCAASGDTSESTSMGWFRQAPGKEREFVSAISRSSTWDAYYADSVKGRFTISRDNSKNTVYLQMNSLRAEDTATYYCAMADIFDHPQNASFMKYWGQGTQVTVSS
notes: 181 aa with the tag, so CDR3 has 15 residues, which fits CDR set (c) or (l)
B7: Nanobody 218_D11 (VHH)
VHH: EVQLQASGGGFVQPGGSLRLSCAASGDTSRFDVMGWFRQAPGKEREFVSAISWWSSDHIYYADSVKGRFTISRDNSKNTVYLQMNSLRAEDTATYYCAYGEYPPRMNRRPYWGQGTQVTVSS
notes: 178 aa with the tag, so CDR3 has 12 residues, which fits CDR set (b) or (d)
B8: Nanobody 214_H05 (VHH)
VHH: EVQLQASGGGFVQPGGSLRLSCAASGTTSNSSGMGWFRQAPGKEREFVSAISWDHGILTYYADSVKGRFTISRDNSKNTVYLQMNSLRAEDTATYYCAHGYVHFNMTHRHISDYWGQGTQVTVSS
notes: Humanized synthetic single domain antibody (hs2dAb library, Hybrigenics); 181 aa with the tag, so CDR3 has 15 residues, which fits CDR set (c), (k) or (l)
B9: Nanobody 219_H09 (VHH)
VHH: EVQLQASGGGFVQPGGSLRLSCAASGSTSYGETMGWFRQAPGKEREFVSAISYYSTRKPYYADSVKGRFTISRDNSKNTVYLQMNSLRAEDTATYYCAIVAYIYADGVRGYHQKIDYWGQGTQVTVSS
notes: 184 aa with the tag, so CDR3 has 18 residues, which fits CDR set (g) or (i)
B10: Nanobody 219_F02 (VHH)
VHH: EVQLQASGGGFVQPGGSLRLSCAASGSTSYSSTMGWFRQAPGKEREFVSAISFDGTSKPYYADSVKGRFTISRDNSKNTVYLQMNSLRAEDTATYYCAAGEWEALMWPPVHDFWIYYWGQGTQVTVSS
notes: as for B9
B11: Nanobody 218_F09 (VHH)
VHH: EVQLQASGGGFVQPGGSLRLSCAASGTTSNGEVMGWFRQAPGKEREFVSAISFGAGSSEYYADSVKGRFTISRDNSKNTVYLQMNSLRAEDTATYYCAASWYHSSIGSMSYWGQGTQVTVSS
notes: as for B7
B12: Nanobody 217_C02 (SEQ ID NO: 52) (VHH)
VHH: EVQLQASGGGFVQPGGSLRLSCAASGTYSSIEVMGWFRQAPGKEREFVSAISFEPNEFAYYADSVKGRFTISRDNSKNTVYLQMNSLRAEDTATYYCASSVEWRQNGKPNTASYWGQGTQVTVSS
notes: Humanized synthetic single domain antibody, his-tagged, made in E. coli; 181 aa with the tag; also called NB #12

What was measured:
[1] = molecular target: T1, recombinant human galectin-7 (human, UniProt P47929 1-136); assay: ELISA of the selected nanobody clone on hGAL-7 with His-tagged MBP as control; y axis 'ELISA Ratio'; no concentration given
T1 construct: Prototypic galectin with one CRD; also called hGAL-7; human GAL-7
T1 sequence (P47929 whole entry): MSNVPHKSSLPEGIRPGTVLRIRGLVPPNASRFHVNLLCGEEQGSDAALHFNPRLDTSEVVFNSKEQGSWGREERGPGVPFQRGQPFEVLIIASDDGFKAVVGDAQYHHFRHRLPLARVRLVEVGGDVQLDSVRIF

[2] = molecular target: T1, recombinant human galectin-7; assay: phage selection and ELISA (FIG. 3A)
[3] = molecular target: T1, recombinant human galectin-7; assay: SPR (BIACore), human GAL-7 on the sensor surface, Nb as analyte
Description: SPR analysis. Binding affinities of his-tagged GAL-7-specific Nbs was measured by surface plasmon resonance (SPR) using a BIACore® system. Briefly, a buffer flow was run across the sensor surface, which has previously been coated with human GAL-7, then the Nbs were introduced into the device and allowed to bind to the immobilized antigen. The stability of the binding between GAL-7 and the Nbs was measured and used to calculate the dissociation constant (Kd) of the Nbs for human GAL-7.

[4] = molecular target: T1, recombinant human galectin-7; assay: cell-based or functional assay
[5] = molecular target: T1, recombinant human galectin-7; assay: cell-based or functional assay; remark: listed apart in the source

Row | Binder | binding result [1] | other results
1 | B1 | binds | –
2 | B2 | binds | –
3 | B3 | binds | –
4 | B4 | – | binding result [2]: binds
5 | B5 | – | Kd [3]: 123 nM; koff [3]: 0.00348 s⁻¹; kon [3]: 28400 M⁻¹ s⁻¹; IC50 (read off the curve): inhibition of hGAL-7-induced apoptosis of Jurkat T cells (Annexin V, flow cytometry) [4]: ~2000 nM; IC50 (read off the curve): inhibition of hGAL-7-induced apoptosis of Jurkat T cells (Annexin V, flow cytometry) [5]: ~3000 nM
6 | B6 | binds | –
7 | B7 | binds | –
8 | B8 | binds | –
9 | B9 | binds | –
10 | B10 | binds | –
11 | B11 | binds | –
12 | B12 | – | Kd [3]: 1500 nM; koff [3]: 0.00165 s⁻¹; kon [3]: 1100 M⁻¹ s⁻¹
